This note sets out measurements from PMC10786891, “Massively parallel profiling of RNA-targeting CRISPR-Cas13d”.

What is called Kd is a measure of binding affinity in units of concentration. A low value points to tighter binding.

This data set concerns the target T1, EsCas13d, nuclease-dead (Eubacterium siraeum, UniProt B0MS50, R295A;H300A;R849A;H854A).
T1 sequence: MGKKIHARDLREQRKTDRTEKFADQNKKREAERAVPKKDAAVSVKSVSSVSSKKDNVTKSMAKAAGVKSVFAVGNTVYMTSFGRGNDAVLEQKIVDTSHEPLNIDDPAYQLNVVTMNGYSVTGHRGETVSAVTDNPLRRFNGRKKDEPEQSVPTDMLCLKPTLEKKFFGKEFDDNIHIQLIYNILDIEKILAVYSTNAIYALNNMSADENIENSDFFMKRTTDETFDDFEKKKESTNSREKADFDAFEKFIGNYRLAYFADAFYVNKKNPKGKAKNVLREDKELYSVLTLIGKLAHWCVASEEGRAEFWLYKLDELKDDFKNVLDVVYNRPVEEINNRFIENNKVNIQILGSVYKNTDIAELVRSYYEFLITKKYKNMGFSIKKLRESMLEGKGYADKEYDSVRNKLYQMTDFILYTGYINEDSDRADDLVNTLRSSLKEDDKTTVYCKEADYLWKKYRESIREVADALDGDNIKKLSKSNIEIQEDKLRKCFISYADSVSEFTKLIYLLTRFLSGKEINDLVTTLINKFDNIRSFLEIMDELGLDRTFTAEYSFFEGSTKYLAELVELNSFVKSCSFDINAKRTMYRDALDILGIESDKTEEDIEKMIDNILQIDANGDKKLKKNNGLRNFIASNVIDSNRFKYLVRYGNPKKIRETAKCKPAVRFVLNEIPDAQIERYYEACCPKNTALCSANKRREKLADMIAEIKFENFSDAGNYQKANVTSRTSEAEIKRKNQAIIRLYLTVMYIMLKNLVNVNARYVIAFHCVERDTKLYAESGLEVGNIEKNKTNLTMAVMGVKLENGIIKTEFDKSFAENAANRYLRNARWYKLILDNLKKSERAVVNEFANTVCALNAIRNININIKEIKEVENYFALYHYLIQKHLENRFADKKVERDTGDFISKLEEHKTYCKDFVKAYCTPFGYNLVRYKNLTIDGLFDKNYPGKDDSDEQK
Description: BLI; crRNA (strand 1, pre-loaded); Mg2+; 40 mM Tris-HCl pH 7.5, 150 mM NaCl, 6 mM MgCl2, 1 mM DTT, 0.1% Tween-20, 0.2 mg/ml BSA; temperature not stated. The note with it: tags: His6-TwinStrep-SUMO cleaved; label: 3' biotin on strand 2.

B1: crRNA-2 (D950N) target (mixed)
RNA 1: CACCCGUGCAAAAUUGCAGGGGUCUAAAACCUUGAAGUUUUCCAAGUGCACU
RNA 2: UCCACAGCAAGUGCACUUGGAAAACUUCAAAAUGUGGUCA
B1 showed a Kd of 2.9 nM.

B2: crRNA-1 (D950N) target (mixed)
RNA 1: CACCCGUGCAAAAUUGCAGGGGUCUAAAACUUUUGGUUGACCACAUCUUGAA
RNA 2: UUGGAAAACUUCAAAAUGUGGUCAACCAAAAUGCACAAGC
As for B2, the Kd came to 15 nM. This Kd is about 5.2-fold higher than that of the molecule before.
